Test results taken from paper PMC6769586.

What was measured:
[1] = molecular target: T1, Cytochrome P450 2C8 R139K/K399R (CYP2C8*3) (human) (UniProt P10632)
T1 sequence: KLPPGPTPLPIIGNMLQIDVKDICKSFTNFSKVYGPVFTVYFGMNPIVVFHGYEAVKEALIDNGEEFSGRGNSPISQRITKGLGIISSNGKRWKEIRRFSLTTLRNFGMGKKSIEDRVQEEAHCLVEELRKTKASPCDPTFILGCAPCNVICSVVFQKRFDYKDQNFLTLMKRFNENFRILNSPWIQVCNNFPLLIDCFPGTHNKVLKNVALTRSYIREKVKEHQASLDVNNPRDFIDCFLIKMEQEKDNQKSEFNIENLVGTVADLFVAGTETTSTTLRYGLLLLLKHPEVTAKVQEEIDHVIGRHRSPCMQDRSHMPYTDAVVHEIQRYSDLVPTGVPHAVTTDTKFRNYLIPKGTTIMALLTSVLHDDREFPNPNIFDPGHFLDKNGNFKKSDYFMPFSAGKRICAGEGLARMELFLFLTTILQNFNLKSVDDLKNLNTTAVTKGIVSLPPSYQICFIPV

CYP2C8-R139K (human) = molecular target: T2, CYP2C8-R139K (human) (UniProt P10632)
T2 sequence: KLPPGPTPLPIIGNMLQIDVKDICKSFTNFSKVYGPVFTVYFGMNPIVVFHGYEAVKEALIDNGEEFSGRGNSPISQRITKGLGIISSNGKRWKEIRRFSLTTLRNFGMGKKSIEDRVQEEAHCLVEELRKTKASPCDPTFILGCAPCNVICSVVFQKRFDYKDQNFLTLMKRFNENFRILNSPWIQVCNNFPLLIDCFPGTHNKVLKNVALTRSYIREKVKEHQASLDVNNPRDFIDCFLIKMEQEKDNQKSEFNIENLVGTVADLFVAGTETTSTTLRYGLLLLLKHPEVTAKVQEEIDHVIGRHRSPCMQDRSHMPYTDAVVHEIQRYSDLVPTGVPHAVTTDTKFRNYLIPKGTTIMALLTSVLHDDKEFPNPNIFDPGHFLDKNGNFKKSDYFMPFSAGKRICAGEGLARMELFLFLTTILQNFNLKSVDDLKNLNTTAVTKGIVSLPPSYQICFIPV

[2] = molecular target: T3, Cytochrome P450 2C8 (CYP2C8*1, wildtype) (human) (UniProt P10632)
T3 sequence: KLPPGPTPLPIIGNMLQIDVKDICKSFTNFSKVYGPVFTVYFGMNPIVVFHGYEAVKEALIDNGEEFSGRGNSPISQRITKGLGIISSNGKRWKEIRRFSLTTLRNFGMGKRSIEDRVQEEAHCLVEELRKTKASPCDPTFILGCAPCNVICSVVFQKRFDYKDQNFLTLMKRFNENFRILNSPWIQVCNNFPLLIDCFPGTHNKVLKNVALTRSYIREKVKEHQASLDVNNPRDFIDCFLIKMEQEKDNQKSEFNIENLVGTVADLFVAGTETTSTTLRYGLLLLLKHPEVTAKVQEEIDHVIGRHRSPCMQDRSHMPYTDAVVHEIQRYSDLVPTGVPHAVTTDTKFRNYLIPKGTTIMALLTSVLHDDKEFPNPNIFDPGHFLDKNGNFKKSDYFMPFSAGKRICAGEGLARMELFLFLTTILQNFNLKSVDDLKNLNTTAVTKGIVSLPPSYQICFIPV

CYP2C8-K399R (human) = molecular target: T4, CYP2C8-K399R (human) (UniProt P10632)
T4 sequence: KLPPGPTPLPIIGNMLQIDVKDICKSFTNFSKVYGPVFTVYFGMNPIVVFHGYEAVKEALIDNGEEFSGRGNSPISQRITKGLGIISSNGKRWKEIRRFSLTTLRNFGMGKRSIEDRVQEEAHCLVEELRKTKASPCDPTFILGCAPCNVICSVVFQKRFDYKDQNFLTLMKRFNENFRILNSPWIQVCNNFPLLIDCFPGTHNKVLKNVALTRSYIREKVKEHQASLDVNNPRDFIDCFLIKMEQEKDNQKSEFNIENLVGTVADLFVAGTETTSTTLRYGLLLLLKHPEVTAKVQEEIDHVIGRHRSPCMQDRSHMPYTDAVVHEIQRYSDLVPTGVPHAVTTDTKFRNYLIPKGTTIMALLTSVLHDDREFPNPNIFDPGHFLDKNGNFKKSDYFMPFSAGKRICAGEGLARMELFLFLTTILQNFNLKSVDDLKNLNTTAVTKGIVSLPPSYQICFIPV

stopped-flow CO binding (first electron transfer from CPR), monophasic k2, 3:1 CPR:CYP, 70 uM paclitaxel, 37 °C [1]: 13.7 ms^-1
stopped-flow CO binding (first electron transfer from CPR), fast phase k1, 1:1 CPR:CYP, 70 uM paclitaxel, 37 °C (CYP2C8-R139K (human)): 0.406 s⁻¹
stopped-flow CO binding (first electron transfer from CPR), monophasic k2, 3:1 CPR:CYP, 70 uM paclitaxel, 37 °C (CYP2C8-R139K (human)): 6.02 ms^-1
stopped-flow CO binding (first electron transfer from CPR), fast phase k1, 1:1 CPR:CYP, 70 uM paclitaxel, 37 °C [2]: 0.468 s⁻¹
stopped-flow CO binding (first electron transfer from CPR), fast phase k1, 1:1 CPR:CYP, 70 uM paclitaxel, 37 °C (CYP2C8-K399R (human)): 0.445 s⁻¹
stopped-flow CO binding (first electron transfer from CPR), slow phase k2, 1:1 CPR:CYP, 70 uM paclitaxel, 37 °C (CYP2C8-K399R (human)): 19.4 ms^-1
B1: Cytochrome P450 reductase (enzyme)
chain: MGDSHEDTSATMPEAVAEEVSLFSTTDMVLFSLIVGVLTYWFIFRKKKEEIPEFSKIQTTAPPVKESSFVEKMKKTGRNIIVFYGSQTGTAEEFANRLSKDAHRYGMRGMSADPEEYDLADLSSLPEIDKSLVVFCMATYGEGDPTDNAQDFYDWLQETDVDLTGVKFAVFGLGNKTYEHFNAMGKYVDQRLEQLGAQRIFELGLGDDDGNLEEDFITWREQFWPAVCEFFGVEATGEESSIRQYELVVHEDMDVAKVYTGEMGRLKSYENQKPPFDAKNPFLAAVTANRKLNQGTERHLMHLELDISDSKIRYESGDHVAVYPANDSALVNQIGEILGADLDVIMSLNNLDEESNKKHPFPCPTTYRTALTYYLDITNPPRTNVLYELAQYASEPSEQEHLHKMASSSGEGKELYLSWVVEARRHILAILQDYPSLRPPIDHLCELLPRLQARYYSIASSSKVHPNSVHICAVAVEYEAKSGRVNKGVATSWLRAKEPAGENGGRALVPMFVRKSQFRLPFKSTTPVIMVGPGTGIAPFMGFIQERAWLREQGKEVGETLLYYGCRRSDEDYLYREELARFHKDGALTQLNVAFSREQAHKVYVQHLLKRDREHLWKLIHEGGAHIYVCGDARNMAKDVQNTFYDIVAEFGPMEHTQAVDYVKKLMTKGRYSLDVWS
